This is an account of results in the supplement of paper PMC7125110.

± gives the standard error. Fewer inactive variants are shown than the library holds. Some results are limits rather than exact numbers.

The labels stand for the following.
B1: glmS ribozyme (parent)
chain: AUAAAAGCGCCAGAACUACAGAAAUGUAGUUGACGAGGAGGAGGUUUAUCGAAUUUUCGGCGGAUGCCUCCAAA

What all share (conditions): with glucosamine-6-phosphate
Variants of B1 are the subject of series [1]. Kind of series: self-cleavage kobs at 40 uM GlcN6P; higher = faster cleavage; RNA array. In outline: (§1)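 Barcoded ribozyme variants, transcribed in situ by E. coli RNA polymerase on sequenced MiSeq chips, were followed via a hybridised Cy3 probe at 37 °C. Glucosamine-6-phosphate ranged from 40 μM to 10 mM in HEPES/KCl/Mg(OAc)2 buffer. kobs came from decay fits to per-tile medians, and kcat and KM from weighted Michaelis–Menten fits.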

The variants in series [2] derive from B1. Kind of series: self-cleavage kobs at 10000 uM GlcN6P; higher = faster cleavage; RNA array. In outline:
as §1

Series [3] covers variants of B1. Kind of series: self-cleavage kobs at 640 uM GlcN6P; higher = faster cleavage; RNA array. Put shortly:
as §1

In series [4] the parent is B1. Kind of series: self-cleavage kobs at 160 uM GlcN6P; higher = faster cleavage; RNA array. Put shortly:
as §1

Series [5] covers variants of B1. Kind of series: self-cleavage kobs at 2500 uM GlcN6P; higher = faster cleavage; RNA array. Put shortly: as §1

Regarding A15G A52G G63U, the “self-cleavage kobs at 40 uM GlcN6P” value in the series with glucosamine-6-phosphate [1] was under 1e-05 s⁻¹. The “self-cleavage kobs at 10000 uM GlcN6P” value with glucosamine-6-phosphate [2] was under 1e-05 s⁻¹.
Take C8A G38C C71A: in the series with glucosamine-6-phosphate [1], the “self-cleavage kobs at 40 uM GlcN6P” value is under 1e-05 s⁻¹. In addition, the “self-cleavage kobs at 640 uM GlcN6P” value with glucosamine-6-phosphate [3] was under 1e-05 s⁻¹.
Regarding G41U C58G, the “self-cleavage kobs at 40 uM GlcN6P” value with glucosamine-6-phosphate [1] is under 1e-05 s⁻¹. For the same variant, the “self-cleavage kobs at 160 uM GlcN6P” value with glucosamine-6-phosphate [4] was under 1e-05 s⁻¹. Besides, the “self-cleavage kobs at 640 uM GlcN6P” value with glucosamine-6-phosphate [3] is under 1e-05 s⁻¹. For the same variant, in the series with glucosamine-6-phosphate [5], the “self-cleavage kobs at 2500 uM GlcN6P” value is under 1e-05 s⁻¹. Also, in the series with glucosamine-6-phosphate [2], the “self-cleavage kobs at 10000 uM GlcN6P” value is under 1e-05 s⁻¹.
U49A G60C: in the series with glucosamine-6-phosphate [1], the “self-cleavage kobs at 40 uM GlcN6P” value is under 1e-05 s⁻¹. Besides, in the series with glucosamine-6-phosphate [3], the “self-cleavage kobs at 640 uM GlcN6P” value is under 1e-05 s⁻¹. For the same variant, the “self-cleavage kobs at 2500 uM GlcN6P” value with glucosamine-6-phosphate [5] was under 1e-05 s⁻¹. Besides, the “self-cleavage kobs at 10000 uM GlcN6P” value with glucosamine-6-phosphate [2] is under 1e-05 s⁻¹.
Consider C10U G41U U56C C70U, for which the “self-cleavage kobs at 40 uM GlcN6P” value with glucosamine-6-phosphate [1] was under 1e-05 s⁻¹.
U31G A42G: in the series with glucosamine-6-phosphate [1], the “self-cleavage kobs at 40 uM GlcN6P” value was found to be 0.00033 ± 8.8e-05 s⁻¹. Further, the “self-cleavage kobs at 640 uM GlcN6P” value in the series with glucosamine-6-phosphate [3] is 0.00343 ± 0.0011 s⁻¹. Also, in the series with glucosamine-6-phosphate [5], the “self-cleavage kobs at 2500 uM GlcN6P” value was 0.00724 ± 0.0018 s⁻¹. In addition, the “self-cleavage kobs at 10000 uM GlcN6P” value with glucosamine-6-phosphate [2] stood at 0.0263 ± 0.0086 s⁻¹.
Regarding A12G C16U C34A A39U G60A U69G, the “self-cleavage kobs at 40 uM GlcN6P” value in the series with glucosamine-6-phosphate [1] is under 1e-05 s⁻¹.
As for U46G A48C, the “self-cleavage kobs at 40 uM GlcN6P” value in the series with glucosamine-6-phosphate [1] was under 1e-05 s⁻¹. The “self-cleavage kobs at 160 uM GlcN6P” value in the series with glucosamine-6-phosphate [4] was under 1e-05 s⁻¹. The “self-cleavage kobs at 640 uM GlcN6P” value with glucosamine-6-phosphate [3] is under 1e-05 s⁻¹.
With G9U C16G, the “self-cleavage kobs at 40 uM GlcN6P” value with glucosamine-6-phosphate [1] is under 1e-05 s⁻¹. Moreover, the “self-cleavage kobs at 2500 uM GlcN6P” value with glucosamine-6-phosphate [5] was under 1e-05 s⁻¹.
Regarding G13U A15U G43C U57C C58G, in the series with glucosamine-6-phosphate [1], the “self-cleavage kobs at 40 uM GlcN6P” value was under 1e-05 s⁻¹.
For A12C U45A C58G C67G, the “self-cleavage kobs at 40 uM GlcN6P” value with glucosamine-6-phosphate [1] was under 1e-05 s⁻¹.
On to G7U G51A, for which, in the series with glucosamine-6-phosphate [1], the “self-cleavage kobs at 40 uM GlcN6P” value was under 1e-05 s⁻¹. For the same variant, the “self-cleavage kobs at 160 uM GlcN6P” value with glucosamine-6-phosphate [4] is under 1e-05 s⁻¹. For the same variant, the “self-cleavage kobs at 2500 uM GlcN6P” value with glucosamine-6-phosphate [5] is under 1e-05 s⁻¹. Further, in the series with glucosamine-6-phosphate [2], the “self-cleavage kobs at 10000 uM GlcN6P” value is under 1e-05 s⁻¹.
In the case of U30A C34U C68G, the “self-cleavage kobs at 40 uM GlcN6P” value with glucosamine-6-phosphate [1] was 0.000169 ± 6.6e-05 s⁻¹. The “self-cleavage kobs at 640 uM GlcN6P” value in the series with glucosamine-6-phosphate [3] is 0.000629 ± 0.00024 s⁻¹. Moreover, in the series with glucosamine-6-phosphate [2], the “self-cleavage kobs at 10000 uM GlcN6P” value amounted to 0.000202 ± 6.3e-05 s⁻¹.
G9U A14G G59C C68U: the “self-cleavage kobs at 40 uM GlcN6P” value with glucosamine-6-phosphate [1] was under 1e-05 s⁻¹. Also, the “self-cleavage kobs at 10000 uM GlcN6P” value with glucosamine-6-phosphate [2] was under 1e-05 s⁻¹.
On to C11G U31A, for which the “self-cleavage kobs at 40 uM GlcN6P” value in the series with glucosamine-6-phosphate [1] was under 1e-05 s⁻¹. In addition, the “self-cleavage kobs at 160 uM GlcN6P” value with glucosamine-6-phosphate [4] was under 1e-05 s⁻¹. In addition, the “self-cleavage kobs at 640 uM GlcN6P” value in the series with glucosamine-6-phosphate [3] is under 1e-05 s⁻¹.
Take G51A A64C: the “self-cleavage kobs at 40 uM GlcN6P” value with glucosamine-6-phosphate [1] was under 1e-05 s⁻¹. In addition, the “self-cleavage kobs at 160 uM GlcN6P” value in the series with glucosamine-6-phosphate [4] was under 1e-05 s⁻¹. Besides, in the series with glucosamine-6-phosphate [5], the “self-cleavage kobs at 2500 uM GlcN6P” value was under 1e-05 s⁻¹. Moreover, the “self-cleavage kobs at 10000 uM GlcN6P” value with glucosamine-6-phosphate [2] was under 1e-05 s⁻¹.
Consider A12C U46C C50G G63U C67G C68U, for which the “self-cleavage kobs at 40 uM GlcN6P” value with glucosamine-6-phosphate [1] came to 0.000202 ± 7.2e-05 s⁻¹. Moreover, the “self-cleavage kobs at 10000 uM GlcN6P” value with glucosamine-6-phosphate [2] stood at 0.000454 ± 0.00012 s⁻¹.
G9A C10A C11U U56G C71U: the “self-cleavage kobs at 40 uM GlcN6P” value with glucosamine-6-phosphate [1] is under 1e-05 s⁻¹. Further, the “self-cleavage kobs at 2500 uM GlcN6P” value with glucosamine-6-phosphate [5] was under 1e-05 s⁻¹. The “self-cleavage kobs at 10000 uM GlcN6P” value in the series with glucosamine-6-phosphate [2] was under 1e-05 s⁻¹.
Consider G41U G62A G63U, for which the “self-cleavage kobs at 40 uM GlcN6P” value with glucosamine-6-phosphate [1] is under 1e-05 s⁻¹. Further, the “self-cleavage kobs at 10000 uM GlcN6P” value in the series with glucosamine-6-phosphate [2] was under 1e-05 s⁻¹.
As to C8G G9A G29U U56A A64G C70A, in the series with glucosamine-6-phosphate [1], the “self-cleavage kobs at 40 uM GlcN6P” value was under 1e-05 s⁻¹.
U49C U65C: the “self-cleavage kobs at 40 uM GlcN6P” value in the series with glucosamine-6-phosphate [1] is under 1e-05 s⁻¹. Also, in the series with glucosamine-6-phosphate [3], the “self-cleavage kobs at 640 uM GlcN6P” value is under 1e-05 s⁻¹. The “self-cleavage kobs at 10000 uM GlcN6P” value in the series with glucosamine-6-phosphate [2] was under 1e-05 s⁻¹.
Take G41U U45A: the “self-cleavage kobs at 40 uM GlcN6P” value with glucosamine-6-phosphate [1] was found to be 8.05e-05 ± 2.1e-05 s⁻¹. The “self-cleavage kobs at 10000 uM GlcN6P” value in the series with glucosamine-6-phosphate [2] was 0.000309 ± 5.5e-05 s⁻¹.
On the same counts, the results for A33G C61U are under 1e-05 s⁻¹ and under 1e-05 s⁻¹.
On to A6G A33U C58G C67U C71A, for which, in the series with glucosamine-6-phosphate [1], the “self-cleavage kobs at 40 uM GlcN6P” value stood at 5.47e-05 ± 2.5e-05 s⁻¹. Also, in the series with glucosamine-6-phosphate [4], the “self-cleavage kobs at 160 uM GlcN6P” value is 9.68e-05 ± 2.9e-05 s⁻¹. For the same variant, in the series with glucosamine-6-phosphate [3], the “self-cleavage kobs at 640 uM GlcN6P” value stood at 0.000593 ± 0.00019 s⁻¹. In the series with glucosamine-6-phosphate [5], the “self-cleavage kobs at 2500 uM GlcN6P” value was found to be 0.000109 ± 4.9e-05 s⁻¹.
As to A15C U55A C61G, in the series with glucosamine-6-phosphate [1], the “self-cleavage kobs at 40 uM GlcN6P” value is under 1e-05 s⁻¹. Moreover, in the series with glucosamine-6-phosphate [2], the “self-cleavage kobs at 10000 uM GlcN6P” value is under 1e-05 s⁻¹.
